From publication PMC1820849, “Identification of a Small TAF Complex and Its Role in the Assembly of TAF-Containing Complexes” (PLoS ONE, 2007)

T1: YFP-TAF9 (UniProt Q16594 1-264)
T1 construct: TAF9 as a YFP fusion; the construct is not described; source: HeLa cells, transfected, in living cells
T1 sequence (looked up): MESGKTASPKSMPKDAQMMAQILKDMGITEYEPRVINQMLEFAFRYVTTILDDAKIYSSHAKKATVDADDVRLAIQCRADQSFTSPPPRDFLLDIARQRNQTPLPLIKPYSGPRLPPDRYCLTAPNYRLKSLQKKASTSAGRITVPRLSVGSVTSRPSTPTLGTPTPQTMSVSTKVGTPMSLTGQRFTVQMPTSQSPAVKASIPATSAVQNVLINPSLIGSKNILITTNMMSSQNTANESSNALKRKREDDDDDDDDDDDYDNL

T2: YFP-SPT7L (human, UniProt O94864 1-414)
T2 construct: human SPT7L as a YFP fusion; vector described in earlier work; source: HeLa cells, transfected, in living cells
T2 sequence (looked up): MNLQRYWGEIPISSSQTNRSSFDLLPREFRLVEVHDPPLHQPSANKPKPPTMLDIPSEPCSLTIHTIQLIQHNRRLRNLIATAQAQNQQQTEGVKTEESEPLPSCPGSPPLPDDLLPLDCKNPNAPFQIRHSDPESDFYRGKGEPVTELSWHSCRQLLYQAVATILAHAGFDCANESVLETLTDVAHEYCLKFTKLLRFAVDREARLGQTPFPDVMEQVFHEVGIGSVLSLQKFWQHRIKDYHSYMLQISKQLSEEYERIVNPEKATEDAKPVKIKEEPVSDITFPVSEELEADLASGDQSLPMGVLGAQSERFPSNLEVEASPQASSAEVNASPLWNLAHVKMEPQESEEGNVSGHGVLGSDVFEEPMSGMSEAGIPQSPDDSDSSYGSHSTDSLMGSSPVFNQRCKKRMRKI

B1: CFP-TAF6 (natural protein)
chain: not shown
notes: TAF6 as a CFP fusion; the construct is not described; source: HeLa cells, transfected, in living cells
B2: CFP-TAF8 (natural protein, UniProt Q7Z7C8 1-310, looked up)
chain: MADAAATAGAGGSGTRSGSKQSTNPADNYHLARRRTLQVVVSSLLTEAGFESAEKASVETLTEMLQSYISEIGRSAKSYCEHTARTQPTLSDIVVTLVEMGFNVDTLPAYAKRSQRMVITAPPVTNQPVTPKALTAGQNRPHPPHIPSHFPEFPDPHTYIKTPTYREPVSDYQVLREKAASQRRDVERALTRFMAKTGETQSLFKDDVSTFPLIAARPFTIPYLTALLPSELEMQQMEETDSSEQDEQTDTENLALHISMEDSGAEKENTSVLQQNPSLSGSRNGEENIIDNPYLRPVKKPKIRRKKSLS
notes: TAF8 as a CFP fusion; vector described in earlier work; source: HeLa cells, transfected, in living cells

Tests used:
Experiment in all cases: FRET or BRET; sensitized emission FRET in the nucleus of living HeLa cells transfected with CFP and YFP fusion vectors; mean FRET efficiency of cells above a 5% threshold
Details in all cases: partners not purified
[1] = target: T1, YFP-TAF9
[2] = target: T2, YFP-SPT7L
[3] = target: T3, YFP-TAF10 (human, UniProt Q12962 1-218)
T3 construct: human TAF10 as a YFP fusion; vector described in earlier work; source: HeLa cells, transfected, in living cells
T3 sequence (Q12962 whole entry, the tested form may be a part): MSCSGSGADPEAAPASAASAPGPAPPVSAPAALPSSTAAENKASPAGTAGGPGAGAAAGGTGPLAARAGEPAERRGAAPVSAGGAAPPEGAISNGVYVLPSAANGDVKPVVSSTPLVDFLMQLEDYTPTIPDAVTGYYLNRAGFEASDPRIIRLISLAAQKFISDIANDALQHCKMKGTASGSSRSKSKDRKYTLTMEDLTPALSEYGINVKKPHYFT

| Binder | FRET efficiency [1] | FRET efficiency [2] | FRET efficiency [3] |
| --- | --- | --- | --- |
| B1 | 27.1% |  |  |
| B2 |  | 15.8% | 16.9% |
